In PMC7102982:

Molecular target: Xenopus laevis FANCA, full length (Xenopus laevis)
Experiment: cryo-EM structure; single-particle cryo-EM of the purified FANCA-FANCG complex (0.8 mg/ml, 0.003% DDM); four classes: FANCA CTD dimer at 3.35 and 3.46 A, two FANCA-FANCG complexes at 4.59 and 4.84 A

stoichiometry N: 2
Substance: Xenopus laevis FANCA, full length (natural protein)
